Results reported in PMC6821130.
“And” between values parts separate entries of the source, which are not always exact repeats. Equal values may be shown once.

Experiments:
[1] = biological target: 6XHis-PilT (Vibrio cholerae); assay: negative-stain electron microscopy
[2] = biological target: 6XHis-PilU (Vibrio cholerae); assay: negative-stain electron microscopy
[3] = biological target: 6xHis-PilT^K136A (Vibrio cholerae); assay: negative-stain electron microscopy
[4] = biological target: 6xHis-PilU^K134A (Vibrio cholerae); assay: negative-stain electron microscopy
[5] = biological target: PilC (full length, fused to the T18 or T25 fragment of adenylate cyclase) (UniProt Q9X4G9); assay: BACTH Miller assay; conditions: read off a plot
[6] = biological target: PilT (full length, fused to the T18 or T25 fragment of adenylate cyclase); assay: BACTH Miller assay; conditions: read off a plot
[7] = biological target: PilT^K136A (full length, fused to the T18 or T25 fragment of adenylate cyclase); assay: BACTH Miller assay; conditions: read off a plot
[8] = biological target: PilU (full length, fused to the T18 or T25 fragment of adenylate cyclase); assay: BACTH Miller assay; conditions: read off a plot
[9] = biological target: PilU^K134A (full length, fused to the T18 or T25 fragment of adenylate cyclase); assay: BACTH Miller assay; conditions: parent: est. 180; read off a plot

Sequence of UniProt Q9X4G9 (Q9X4G9 whole entry, the tested form may be a part): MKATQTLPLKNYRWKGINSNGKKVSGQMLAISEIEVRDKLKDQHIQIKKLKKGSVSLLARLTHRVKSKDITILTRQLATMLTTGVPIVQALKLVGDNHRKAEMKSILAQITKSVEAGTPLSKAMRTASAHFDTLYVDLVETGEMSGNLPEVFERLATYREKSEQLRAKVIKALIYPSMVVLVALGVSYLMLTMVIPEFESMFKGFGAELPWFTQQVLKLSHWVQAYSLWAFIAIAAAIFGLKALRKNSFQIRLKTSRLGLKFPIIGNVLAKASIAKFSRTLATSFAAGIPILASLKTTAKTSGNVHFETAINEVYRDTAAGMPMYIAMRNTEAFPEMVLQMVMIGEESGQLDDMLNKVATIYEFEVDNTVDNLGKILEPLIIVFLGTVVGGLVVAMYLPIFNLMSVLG

With 6XHis-PilT (enzyme) the stoichiometry N [1] was 6.
For 6XHis-PilU (enzyme), the stoichiometry N [2] was 6.
For 6xHis-PilT^K136A (enzyme), the stoichiometry N [3] was 6.
Substance 6xHis-PilU^K134A (enzyme) has a stoichiometry N [4] of 6.
In the case of “PilT (full length, fused to the T18 or T25 fragment of adenylate cyclase) K136A”, the response ([5]; parent: est. 90) is reported as 80 Miller Units, the response ([5]; parent: est. 120) is reported as 110 Miller Units and the response ([6]; parent: est. 170) is reported as 170 Miller Units and 160 Miller Units. The response ([7]; parent: est. 170) was 85 Miller Units, the response ([8]; parent: est. 65) was 8.5 Miller Units and the response ([8]; parent: est. 110) was 78 Miller Units.
With “PilU (full length, fused to the T18 or T25 fragment of adenylate cyclase) K134A” the response ([5]; parent: est. 55) was 75 Miller Units, the response ([5]; parent: est. 100) was 110 Miller Units and the response ([6]; parent: est. 65) was 85 Miller Units. The response ([6]; parent: est. 110) was 78 Miller Units, the response ([8]; parent: est. 180) was 180 Miller Units and 220 Miller Units and the response [9] was 140 Miller Units.
Work on m2; m1 PilU:K134A; PilT:K136A yielded a response ([7]; parent: est. 65) of 11 Miller Units and a response ([7]; parent: est. 110) of 48 Miller Units.
